Legend:
Experiment in all cases: cell-based or functional assay
[1] = target: CD28 on Jurkat/IL2 reporter cells (human) (UniProt P10747)
[2] = target: PD-L1 on K562/OKT3/PD-L1 artificial antigen presenting cells (UniProt Q9NZQ7)
[3] = target: PD-1 (PDCD1) (Homo sapiens (Human)) (UniProt Q15116)
CD28 (human) = CD28 (human) (UniProt P10747)
PD-L1 (human) = PD-L1 (human) (UniProt Q9NZQ7)
Sequence of PD-L1 (human) (Q9NZQ7 19-290): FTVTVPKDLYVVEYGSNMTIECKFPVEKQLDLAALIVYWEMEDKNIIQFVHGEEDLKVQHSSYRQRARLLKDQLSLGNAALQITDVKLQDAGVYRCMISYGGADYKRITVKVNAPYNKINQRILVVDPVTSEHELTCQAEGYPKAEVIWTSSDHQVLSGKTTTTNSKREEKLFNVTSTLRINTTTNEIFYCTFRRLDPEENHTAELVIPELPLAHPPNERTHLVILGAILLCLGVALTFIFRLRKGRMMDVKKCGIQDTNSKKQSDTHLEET

Sequence of PD-L1 on K562/OKT3/PD-L1 artificial antigen presenting cells (Q9NZQ7 19-290): as above
Sequence of PD-1 (PDCD1) (Homo sapiens (Human)) (Q15116 21-288): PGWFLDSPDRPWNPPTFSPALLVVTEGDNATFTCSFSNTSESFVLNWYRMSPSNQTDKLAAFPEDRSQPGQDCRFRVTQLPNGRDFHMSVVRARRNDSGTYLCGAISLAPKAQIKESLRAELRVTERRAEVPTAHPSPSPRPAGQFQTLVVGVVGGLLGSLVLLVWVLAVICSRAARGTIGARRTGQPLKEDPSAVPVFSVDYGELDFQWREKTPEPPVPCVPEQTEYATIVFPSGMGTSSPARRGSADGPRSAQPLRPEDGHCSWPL

Row | Substance | Fold Increase over WT CD80-IgV-Fc (RLU, Jurkat/IL2 + K562/OKT3/PD-L1 reporter assay, 50 nM) [1] [fold] | Relative Luciferase Units (RLU), Jurkat/IL2 + K562/OKT3/PD-L1 reporter assay, CD80-Fc Conc 50 nM [1] [RLU] | Fold Increase over WT CD80-IgV-Fc (RLU, Jurkat/IL2 + K562/OKT3/PD-L1 reporter assay, 50 nM) [2] [fold] | Relative Luciferase Units (RLU), Jurkat/IL2 + K562/OKT3/PD-L1 reporter assay, CD80-Fc Conc 50 nM [2] [RLU] | IFN gamma levels pg/mL (MLR) [3] [pg/mL] | other results
1 | CD80 A26E/E35D/M47L/A71G IgV-Fc (inert) (Fc fusion) | 8.5 | 1750 | 8.5 | 1750 |  | 
2 | CD80 E35D/D46E/M47V/A71D IgV-Fc (inert) (Fc fusion) | 3.3 | 683 | 3.3 | 683 |  | 
3 | CD80 E35D/D46E/M47V/A71D/D90G IgV-Fc (inert) (Fc fusion) | 5.1 | 1040 | 5.1 | 1040 |  | 
4 | CD80 E35D/D46V/M47L/V68M/L85Q/E88D IgV-Fc (inert) (Fc fusion) | 7.1 | 1460 | 7.1 | 1460 |  | 
5 | CD80 E35D/K37E/M47V/N48D/L85Q/D90N IgV-Fc (inert) (Fc fusion) | 4.1 | 851 | 4.1 | 851 |  | 
6 | CD80 E35D/M38T/D46E/M47V/N48S IgV-Fc (inert) (Fc fusion) | 6.4 | 1320 | 6.4 | 1320 |  | 
7 | CD80 E35D/M38T/M43V/M47V/N48R/L85Q IgV-Fc (inert) (Fc fusion) | 3.3 | 680 | 3.3 | 680 |  | 
8 | CD80 E35D/M47L/A71G/L85M/F92Y IgV-Fc (inert) (Fc fusion) | 6.4 | 1320 | 6.4 | 1320 |  | 
9 | CD80 E35D/M47V/A71G/E88D IgV-Fc (inert) (Fc fusion) | 5.9 | 1220 | 5.9 | 1220 |  | 
10 | CD80 E35D/M47V/N48T/L85Q IgV-Fc (inert) (Fc fusion) | 4.4 | 897 | 4.4 | 897 |  | 
11 | CD80 E35D/T41S/M43I/A71G/D90G IgV-Fc (inert) (Fc fusion) | 5.4 | 1120 | 5.4 | 1120 |  | 
12 | CD80 E35D/T41S/M43I/M47L/A71G IgV-Fc (inert) (Fc fusion) | 7.5 | 1540 | 7.5 | 1540 |  | 
13 | CD80 E35D/T41S/M43I/M47V/A71G IgV-Fc (inert) (Fc fusion) | 6.2 | 1270 | 6.2 | 1270 |  | 
14 | CD80 E35D/T41S/M43V/M47I/L70M/A71G IgV-Fc (inert) (Fc fusion) | 8.1 | 1670 | 8.1 | 1670 |  | 
15 | CD80 E35D/T41S/M47V/A71G/K89N IgV-Fc (inert) (Fc fusion) | 5 | 1020 | 5 | 1020 |  | 
16 | CD80 E35D/T41S/M47V/L97Q IgV-Fc (inert) (Fc fusion) | 2.9 | 594 | 2.9 | 594 |  | 
17 | CD80 E35D/Y53H/A71G/D90G/L97R IgV-Fc (inert) (Fc fusion) | 8.4 | 1720 | 8.4 | 1720 |  | 
18 | CD80 H18Y/A26E/E35D/M47L/L85Q/D90G IgV-Fc (inert) (Fc fusion) | 7.3 | 1510 | 7.3 | 1510 |  | 

Row | Substance | Fold Increase over WT CD80-IgV-Fc (RLU, Jurkat/IL2 + K562/OKT3/PD-L1 reporter assay, 50 nM) [1] [fold] | Relative Luciferase Units (RLU), Jurkat/IL2 + K562/OKT3/PD-L1 reporter assay, CD80-Fc Conc 50 nM [1] [RLU] | Fold Increase over WT CD80-IgV-Fc (RLU, Jurkat/IL2 + K562/OKT3/PD-L1 reporter assay, 50 nM) [2] [fold] | Relative Luciferase Units (RLU), Jurkat/IL2 + K562/OKT3/PD-L1 reporter assay, CD80-Fc Conc 50 nM [2] [RLU] | IFN gamma levels pg/mL (MLR) [3] [pg/mL] | other results
19 | CD80 I30V/E35D/M47V/A71G/A91V IgV-Fc (inert) (Fc fusion) | 7.3 | 1500 | 7.3 | 1500 |  | 
20 | CD80 Q27H/E35D/D46V/M47L/A71G IgV-Fc (inert) (Fc fusion) | 4.7 | 978 | 4.7 | 978 |  | 
21 | CD80 Q27H/E35D/M47I/L85Q/D90G IgV-Fc (inert) (Fc fusion) | 6.4 | 1310 | 6.4 | 1310 |  | 
22 | CD80 V22D/E35D/M47L/L70M/L97Q IgV-Fc (inert) (Fc fusion) | 7.5 | 1540 | 7.5 | 1540 |  | 
23 | CD80 V22D/E35D/M47L/L85Q IgV-Fc (inert) (Fc fusion) | 5.5 | 1140 | 5.5 | 1140 |  | 
24 | CD80 V22L/Q27H/E35D/M47I/A71G IgV-Fc (inert) (Fc fusion) | 5.5 | 1120 | 5.5 | 1120 |  | 
25 | PD-L2 E44D IgV-Fc (from UniProt Q9BQ51 20-121) (Fc fusion) |  |  |  |  | 1500 | 
26 | PD-L2 E44D/S67L/Q72H/Q82R/V89D IgV-Fc (from UniProt Q9BQ51 20-121) (Fc fusion) |  |  |  |  | 1280 | 
27 | PD-L2 E59G/Q82R IgV-Fc (from UniProt Q9BQ51 20-121) (Fc fusion) |  |  |  |  | 1510 | 
28 | PD-L2 H15Q/C23S/I86T IgV-Fc (from UniProt Q9BQ51 20-121) (Fc fusion) |  |  |  |  | 1850 | 
29 | PD-L2 H15Q/E44D/R76G/I85F IgV-Fc (from UniProt Q9BQ51 20-121) (Fc fusion) |  |  |  |  | 1390 | 
30 | PD-L2 H15Q/K65R IgV-Fc (from UniProt Q9BQ51 20-121) (Fc fusion) |  |  |  |  | 1510 | 
31 | PD-L2 H15Q/L33H/S67L/R76G/Q82R/V89D IgV-Fc (from UniProt Q9BQ51 20-121) (Fc fusion) |  |  |  |  | 1500 | 
32 | PD-L2 H15Q/L33P/T47A/S67L/P71S/V89D IgV-Fc (from UniProt Q9BQ51 20-121) (Fc fusion) |  |  |  |  | 1290 | 
33 | PD-L2 H15Q/N32D/S67L/V89D IgV-Fc (from UniProt Q9BQ51 20-121) (Fc fusion) |  |  |  |  | 1290 | 
34 | PD-L2 H15Q/Q72H/V89D IgV-Fc (from UniProt Q9BQ51 20-121) (Fc fusion) |  |  |  |  | 1270 | 
35 | PD-L2 H15Q/R76G/I85F IgV-Fc (first entry) (from UniProt Q9BQ51 20-121) (Fc fusion) |  |  |  |  | 1730 | 
36 | variant CD80 IgV-Fc (inert) E35G/K54E/A71D/L72P (Fc fusion) |  |  |  |  |  | IL-2-luciferase RLU, Jurkat + CHO/OKT3/PD-L1 aAPC, 0.6 nM (CD28 (human)): 529 RLU; IL-2-luciferase RLU, Jurkat + CHO/OKT3/PD-L1 aAPC, 1.9 nM (CD28 (human)): 489 RLU; IL-2-luciferase RLU, Jurkat + CHO/OKT3/PD-L1 aAPC, 5.6 nM (CD28 (human)): 554 RLU; IL-2-luciferase RLU, Jurkat + CHO/OKT3/PD-L1 aAPC, 16.7 nM (CD28 (human)): 504 RLU; IL-2-luciferase RLU, Jurkat + CHO/OKT3/PD-L1 aAPC, 50 nM (CD28 (human)): 476 RLU; IL-2-luciferase RLU, Jurkat + CHO/OKT3 aAPC (no PD-L1), 5.6 nM (CD28 (human)): 417 RLU; IL-2-luciferase RLU, Jurkat + CHO/OKT3 aAPC (no PD-L1), 16.7 nM (CD28 (human)): 475 RLU; IL-2-luciferase RLU, Jurkat + CHO/OKT3 aAPC (no PD-L1), 50 nM (CD28 (human)): 440 RLU; IL-2 release, primary T cells; K562/OKT3/PD-L1; 100 nM (PD-L1 (human)): 59
